For the assay, the target named is T1, Strep-CD9P1-ECD (recombinant soluble human CD9P-1 extracellular domain with Strep tag) (human, UniProt Q9P2B2 22-832).
T1 construct: The limits 22-832 are stated for the recombinant extracellular domain made in CHO cells and used as immunogen; also called recombinant CD9P-1 extracellular domain; not shown: Strep tag; Residue numbers of the construct are 8 higher than those of CD9P-1
T1 sequence: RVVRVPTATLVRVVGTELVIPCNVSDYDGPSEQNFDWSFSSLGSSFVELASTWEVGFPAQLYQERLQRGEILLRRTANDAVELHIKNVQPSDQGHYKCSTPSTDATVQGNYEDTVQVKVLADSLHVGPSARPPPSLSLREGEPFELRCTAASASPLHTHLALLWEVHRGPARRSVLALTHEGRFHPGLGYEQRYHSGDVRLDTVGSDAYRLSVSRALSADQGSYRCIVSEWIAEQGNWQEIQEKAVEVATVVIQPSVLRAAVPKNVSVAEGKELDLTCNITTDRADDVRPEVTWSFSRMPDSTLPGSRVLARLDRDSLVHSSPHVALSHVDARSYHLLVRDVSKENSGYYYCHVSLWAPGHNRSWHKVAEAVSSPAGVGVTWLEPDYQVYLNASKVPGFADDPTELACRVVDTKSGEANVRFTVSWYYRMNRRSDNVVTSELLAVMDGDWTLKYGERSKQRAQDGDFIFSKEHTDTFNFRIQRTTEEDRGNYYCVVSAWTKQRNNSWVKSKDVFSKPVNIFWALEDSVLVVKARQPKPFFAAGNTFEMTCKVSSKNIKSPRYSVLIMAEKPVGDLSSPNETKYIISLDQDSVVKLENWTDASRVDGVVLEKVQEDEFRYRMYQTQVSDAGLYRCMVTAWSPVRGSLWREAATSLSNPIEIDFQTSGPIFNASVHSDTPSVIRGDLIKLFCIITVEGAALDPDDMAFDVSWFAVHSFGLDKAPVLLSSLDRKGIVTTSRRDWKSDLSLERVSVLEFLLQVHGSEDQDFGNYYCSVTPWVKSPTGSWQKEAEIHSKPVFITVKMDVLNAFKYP
The assay is described as follows: SPR; Strep-CD9P1-ECD coated on sensor chip, antibody flowed over. From the text:
Recombinant Strep-CD9P1-ECD was coated on sensor chip and several concentrations of the antibodies were flowed over the chip to obtain binding and dissociation kinetics.
(In general: In SPR one partner is held on a chip, and binding of the other changes the refractive index at the surface.)

B1: 9bF4 mAb (mouse anti-human CD9P-1 monoclonal antibody, hybridoma CNCM I-5213) (antibody, V domains shown)
VH: QVQLQQSGAELVKPGTSVKLSCKTSGYTFTSYWIQWIKQRPGQGLGWIGEIFPGTGTTSYHEKFKGKATLTIDTSSSTAYLQLSNLTSEDSAVYFCSRDFDVWGAGTTVTVSS
VL: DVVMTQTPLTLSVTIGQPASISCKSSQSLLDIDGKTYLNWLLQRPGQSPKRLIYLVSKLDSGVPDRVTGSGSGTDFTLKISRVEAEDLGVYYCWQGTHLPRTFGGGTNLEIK
notes: Mouse IgG from a hybridoma, purified on protein G; also called Mouse IgG 9bF4; IgG 9bF4
Usually Kd stands for the equilibrium constant for the complex coming apart. Broadly, the koff is a measure of how fast the partners let go of each other. As a reminder, the kon is the second-order rate constant of association. With B1, the Kd turned out to be 90.9 nM, the koff came out at 0.00491 s⁻¹ and the kon was found to be 54100 M⁻¹ s⁻¹.

B2: 10bB1 mAb (mouse anti-human CD9P-1 monoclonal antibody, hybridoma CNCM I-5214) (antibody, V domains shown)
VH: B1 VH
VL: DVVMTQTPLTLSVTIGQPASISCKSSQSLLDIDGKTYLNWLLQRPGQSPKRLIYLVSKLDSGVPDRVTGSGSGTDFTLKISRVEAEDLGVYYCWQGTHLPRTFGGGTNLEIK
notes: Mouse IgG from a hybridoma; also called IgG 10bB1; 10bB11
On to B2, for which the dissociation constant (Kd) is 899 nM, the koff was determined as 0.0118 s⁻¹ and the kon was 13200 M⁻¹ s⁻¹.

For the origin of these results see patent publication US20200172618A1 (GENE SIGNAL INTERNATIONAL, published 2020).
